B1: Pistol ribozyme (parent)
chain: GGGUCGUUGUUCCAUAAUCGCGUGGAUAUGGCACGCAAGUUUCUACCGGGCACCGUAAAUGUCCGACUGGAGCCGUUCGGGCGGCUAUAAACAGACCUCAGGCCCGAAGCGUGGCGGCACCUGCCGCCGGUGGUAAAAAAGAUCGGAAGAGCACACGUCU

Variants of: B1
Experiment: aptazyme ON/OFF ratio, guanine; higher = stronger switching; co-transcriptional cleavage with and without guanine

Variant | aptazyme ON/OFF ratio
U7A U8C G9U U10G C12U C13U | 1.14
U7A U8C G9U U10G C12U C13A | 1.61
U7A U8C G9U U10G C12G C13G | 1.14
U7A U8C G9U U10G C12G C13A | 1.19
U7A U8C G9U U10G C12G C13U | 1.28
U7A U8C G9U U11A C12G C13A | 1.14
U7A U8C G9U U11A C12G C13U | 1.2
U7A U8C G9U U11A C12G C13G | 1.22
U7A U8C G9U U11C C12A C13G | 1.1
U7A U8C G9U U11C C12A C13A | 1.18
U7A U8C G9U U11C C12A C13U | 1.2
U7A U8C G9U U10A U11G C13U | 1.23
U7A U8C G9U U10A U11G C13G | 1.1
U7A U8C G9U U10A U11G C13A | 1.17
U7A U8C G9U U10C U11G C12U C13U | 1.18
U7A U8C G9U U10C U11G C12U C13G | 1.18
U7A U8C G9U U10C U11G C12U C13A | 1.15
U7A U8C G9U U11G C13A | 1.2
U7A U8C G9U U11G C13G | 1.12
U7A U8C G9U U11G C13U | 1.27
U7A U8C G9U U10G U11G C12A C13U | 1.37

Variant | aptazyme ON/OFF ratio
U7A U8C G9U U10G U11G C12A C13A | 1.12
U7A U8C G9U U10G U11G C12A C13G | 1.11
U7A U8C G9U U10C U11A C12A C13U | 1.12
U7A U8C G9U U10C U11A C12A C13G | 1.1
U7A U8C G9U U10C U11A C12A C13A | 1.12
U7A U8C G9U U10C U11G C12A C13U | 1.27
U7A U8C G9U U10C U11G C12A C13G | 1.11
U7A U8C G9U U10C U11G C12A C13A | 1.13
U7A U8C G9U U10C C12U C13U | 1.16
U7A U8C G9U U10C C12U C13A | 1.19
U7A U8C G9U U10C C12U C13G | 1.09
U7A U8C G9U U10G C12U | 1.17
U7A U8C G9U U10G C12A | 1.53
U7A U8C G9U U10G C12G | 1.13
U7A U8C G9U U10A U11A C13U | 1.16
U7A U8C G9U U10A U11A C13G | 1.08
U7A U8C G9U U10A U11A C13A | 1.17
U7A U8C G9C U11C C12U C13G | 1.09
U7A U8C G9C U11C C12U C13A | 1.04
U7A U8C G9C U11C C12U C13U | 1.06
U7A U8C G9C U10G U11G C12G C13U | 1.05

Variant | aptazyme ON/OFF ratio
U7A U8C G9C U10G U11G C12G C13A | 1.08
U7A U8C G9C U10G U11G C12G C13G | 1.13
U7A U8C G9U U10C U11C C13G | 1.02
U7A U8C G9U U10C U11C C13A | 1.01
U7A U8C G9U U10C U11C C13U | 1.03
U7A U8C G9U C12A C13U | 1.27
U7A U8C G9U C12A C13G | 1.19
U7A U8C G9U C12A C13A | 1.15
U7A U8C G9U C12U C13G | 1.12
U7A U8C G9U C12U C13U | 1.39
U7A U8C G9U C12U C13A | 1.22
U7A U8C U10A | 1.06
U7A U8C G9U U10A C12A | 1.25
U7A U8C G9U U10A C12G | 1.23
U7A U8C G9U U10A C12U | 1.18
U7A U8C G9U U11C | 1.1
U7A U8C G9U U11A | 1.19
U7A U8C G9U U11G | 1.29
U7A U8C G9U U10G U11C C12A C13A | 1.14
U7A U8C G9U U10G U11C C12A C13G | 1.15
U7A U8C G9U U10G U11C C12A C13U | 1.26

Variant | aptazyme ON/OFF ratio
U7A U8C G9U U10G U11A C12G | 1.21
U7A U8C G9U U10G U11A C12A | 1.14
U7A U8C G9U U10G U11A C12U | 1
U7A U8C G9U U11A C12U C13U | 1.16
U7A U8C G9U U11A C12U C13A | 1.37
U7A U8C G9U U11A C12U C13G | 1.22
U7A U8C G9U C13U | 1.23
U7A U8C G9U C13G | 1.03
U7A U8C G9U C13A | 1.27
U7A U8C G9U U10A U11A C12A | 1.28
U7A U8C G9U U10A U11A C12U | 1.12
U7A U8C G9U U10A U11A C12G | 1.27
U7A U8C G9C U11G C13U | 1.1
U7A U8C G9C U11G C13G | 1.13
U7A U8C G9C U11G C13A | 1.05
U7A U8C G9U U10C C13A | 1.09
U7A U8C G9U U10C C13U | 1.19
U7A U8C G9U U10C C13G | 1.06
U7A U8C G9U U10G U11C C13A | 1.17
U7A U8C G9U U10G U11C C13U | 1.03
U7A U8C G9U U10G U11C C13G | 1.08

Reference: the RNAGym collection of RNA variant scans (doi:10.1021/acssynbio.7b00057)
